Test results as given in IntAct's records for PubMed 29691401.

Target: lmbl3_human L3MBTL3 (UniProt Q96JM7)
Sequence (Q96JM7 whole entry): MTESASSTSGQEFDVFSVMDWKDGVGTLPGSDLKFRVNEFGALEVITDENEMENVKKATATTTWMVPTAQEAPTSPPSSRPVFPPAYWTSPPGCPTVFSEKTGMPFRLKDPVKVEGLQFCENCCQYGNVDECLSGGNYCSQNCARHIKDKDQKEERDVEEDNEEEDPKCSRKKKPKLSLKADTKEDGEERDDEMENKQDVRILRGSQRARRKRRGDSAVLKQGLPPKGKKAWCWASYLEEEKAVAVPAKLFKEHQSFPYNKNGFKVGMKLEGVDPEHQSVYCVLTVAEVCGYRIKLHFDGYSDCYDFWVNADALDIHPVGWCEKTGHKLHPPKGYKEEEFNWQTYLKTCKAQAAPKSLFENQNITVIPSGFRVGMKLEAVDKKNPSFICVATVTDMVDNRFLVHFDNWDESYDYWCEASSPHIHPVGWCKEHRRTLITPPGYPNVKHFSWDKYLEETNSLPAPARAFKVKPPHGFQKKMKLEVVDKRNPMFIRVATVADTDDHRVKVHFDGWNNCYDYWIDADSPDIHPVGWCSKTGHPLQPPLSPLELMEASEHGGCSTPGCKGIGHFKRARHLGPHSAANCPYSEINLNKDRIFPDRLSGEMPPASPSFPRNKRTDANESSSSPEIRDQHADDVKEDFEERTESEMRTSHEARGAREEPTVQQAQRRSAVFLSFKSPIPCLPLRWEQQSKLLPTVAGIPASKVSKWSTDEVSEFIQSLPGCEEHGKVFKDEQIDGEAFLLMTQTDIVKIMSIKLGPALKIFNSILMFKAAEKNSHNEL

Sequence of Transcription factor E2F1 (Homo sapiens), Q01094 K185R (Q01094 whole entry K185R): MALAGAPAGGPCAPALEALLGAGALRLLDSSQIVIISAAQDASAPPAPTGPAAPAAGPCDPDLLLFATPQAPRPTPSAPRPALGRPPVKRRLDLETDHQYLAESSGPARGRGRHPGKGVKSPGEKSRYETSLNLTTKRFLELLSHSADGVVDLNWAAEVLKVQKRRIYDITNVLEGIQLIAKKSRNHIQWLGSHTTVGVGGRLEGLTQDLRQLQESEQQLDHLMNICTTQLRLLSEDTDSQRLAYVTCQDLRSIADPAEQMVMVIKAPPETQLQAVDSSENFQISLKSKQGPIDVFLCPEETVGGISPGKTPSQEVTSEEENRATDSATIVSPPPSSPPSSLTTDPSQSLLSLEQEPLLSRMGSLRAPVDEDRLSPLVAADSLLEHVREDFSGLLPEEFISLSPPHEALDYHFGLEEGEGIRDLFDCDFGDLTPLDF

Substance: Transcription factor E2F1 (Homo sapiens), Q01094 K185R
- effect of a mutation on the interaction: disrupting interaction strength
